In US20160272706A1:

Tests used:
[1] = molecular target: cynomolgus monkey FcRn (cynomolgus monkey) (UniProt Q8SPV9); assay: SPR (BIAcore 3000), IgG immobilised on CM5, FcRn injected at pH 6, steady-state 1:1 fit
[2] = molecular target: human FcRn protein (human) (UniProt P55899); assay: as above
[3] = molecular target: cynomolgus monkey FcRn (cynomolgus monkey) (UniProt Q8SPV9); assay: SPR (BIAcore 3000), IgG immobilised on CM5, FcRn injected; binding at pH 7.4 as a percentage of that at pH 6
[4] = molecular target: human FcRn protein (human) (UniProt P55899); assay: as above

human FcRn protein (human), sequence (P55899 24-290 limits assumed, chain 1 of 2): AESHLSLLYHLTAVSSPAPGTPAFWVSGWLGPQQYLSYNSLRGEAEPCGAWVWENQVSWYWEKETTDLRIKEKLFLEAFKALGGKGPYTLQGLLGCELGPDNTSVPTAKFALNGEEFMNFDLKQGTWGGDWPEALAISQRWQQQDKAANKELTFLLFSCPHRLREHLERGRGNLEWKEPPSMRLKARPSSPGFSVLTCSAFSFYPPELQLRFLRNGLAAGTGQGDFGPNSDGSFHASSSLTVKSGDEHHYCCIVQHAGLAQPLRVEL
human FcRn protein (human), sequence (P61769 21-119 limits assumed, chain 2 of 2, further chain): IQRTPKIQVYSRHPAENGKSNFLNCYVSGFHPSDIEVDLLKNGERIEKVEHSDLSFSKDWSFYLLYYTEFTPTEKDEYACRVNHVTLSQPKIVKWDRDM
cynomolgus monkey FcRn (cynomolgus monkey), sequence (Q8SPV9 24-290 limits assumed, chain 1 of 2): as the sequence (P55899 24-290 limits assumed, chain 1 of 2) above, with N39D, E44Q, G99S, S189G, S190N, L217M counted along it
cynomolgus monkey FcRn (cynomolgus monkey), sequence (Q8SPW0 21-119 limits assumed, chain 2 of 2, further chain): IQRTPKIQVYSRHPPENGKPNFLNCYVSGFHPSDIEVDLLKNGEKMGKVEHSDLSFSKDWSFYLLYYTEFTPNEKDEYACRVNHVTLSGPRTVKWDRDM

NIP228 (antibody)
Kd [1]: 1860 nM | Kd [2]: 2040 nM | pH7.4/pH6 [3]: 1% | pH7.4/pH6 [4]: 1%
